Data: paper PMC9606263, “Polerovirus N-terminal readthrough domain structures reveal molecular strategies for mitigating virus transmission by aphids” (Nature Communications, 2022)

B1: N-terminal portion of the potato leafroll virus readthrough domain (PLRV NRTD; residues 230-458), native (domain or fragment)
chain: HERFIAYVGIPMLTIQARENDDQIILGSLGSQRMKYIEDENQNYTKFSSEYYSQSSMQAVPMYYFNVPKGQWSVDISCEGYQPTSSTSDPNRGRSDGMIAYSNADSDYWNVGEADGVKISKLRNDNTYRQGHPELEINSCHFREGQLLERDATISFHVEAPTDGRFFLVGPAIQKTAKYNYTISYGDWTDRDMELGLITVVLDEHLEGTGSANRVRRPPREGHTYMASP
notes: Readthrough protein (RTP, CP-RTD fusion) of potato leafroll virus, N-terminal portion of the readthrough domain, residues 230-458 of the complete RTP fusion; 6xHis-NusA removed with HRV3C protease; also called WT PLRV ^NRTD; source: E. coli BL21(DE3), purified (nickel column, HiTrap Q, SEC); not shown: 6xHis, N-terminal, cleaved; NusA, N-terminal, cleaved

Key:
[1] = target: N-terminal portion of the readthrough domain of turnip yellows virus (TuYV NRTD; residues 224-459) (turnip yellows virus); assay: SEC-MALS; loaded at 4 mg/mL on Superdex 200 10/300 Increase; 20 mM HEPES pH 7.5, 150 mM KCl, 1 mM DTT; 0.5 ml/min
[2] = target: the molecule itself; assay: as above

Molecule	stoichiometry N [1]	stoichiometry N [2]
N-terminal portion of the readthrough domain of turnip yellows virus (TuYV NRTD; residues 224-459) (from UniProt P09516 224-459) (domain or fragment)	2	–
B1	–	2
